* marks the point of attachment. X1 = 1,2‑dioleoyl‑sn‑glycero‑3‑succinate, CCCCCCCC/C=C\CCCCCCCC(=O)OC[C@H](COC(=O)CCC(=O)*)OC(=O)CCCCCCC/C=C\CCCCCCCC
Tests used:
[1] = biological target: endothelin receptors on A549 human lung epithelial carcinoma cells (human); assay: cell-based or functional assay
[2] = biological target: endothelin receptors on rat peritoneal mast cells (RBL) (rat); assay: cell-based or functional assay

B1: liposome complex comprising the conjugated endothelin peptide ligand 1,2-dioleoyl-sn-glycero-3-succinate-Cys-His-Leu-Asp-Ile-Ile-Trp-COOH (peptide)
peptide: X1-CHLDIIW-OH
modifications: not fully specified; printed as 1,2-dioleoyl-sn-glycero-3-succinate-Cys-His-Leu-Asp-Ile-Ile-Trp-COOH; also: lipid conjugate incorporated in liposomes
recovery of endothelin receptors after internalization [1]: 100%
reduction of endothelin receptors after pre-exposure to unlabeled liposomes [1]: 50%
reduction of endothelin receptors after pre-exposure to unlabeled liposomes [2]: 50%
